We go through 1 molecule from article PMC12137173, “Cdc48 plays a crucial role in redox homeostasis through dynamic reshaping of its interactome during early stationary phase” (Redox Biology, 2025).

The target of this assay is T1, Shp1/Ubx1 (purified) (S. cerevisiae, UniProt P34223 1-423).
T1 construct: Shp1/Ubx1, UBX-family cofactor of Cdc48, S. cerevisiae; also called Shp1/Uxb1; source: purified
T1 sequence (looked up): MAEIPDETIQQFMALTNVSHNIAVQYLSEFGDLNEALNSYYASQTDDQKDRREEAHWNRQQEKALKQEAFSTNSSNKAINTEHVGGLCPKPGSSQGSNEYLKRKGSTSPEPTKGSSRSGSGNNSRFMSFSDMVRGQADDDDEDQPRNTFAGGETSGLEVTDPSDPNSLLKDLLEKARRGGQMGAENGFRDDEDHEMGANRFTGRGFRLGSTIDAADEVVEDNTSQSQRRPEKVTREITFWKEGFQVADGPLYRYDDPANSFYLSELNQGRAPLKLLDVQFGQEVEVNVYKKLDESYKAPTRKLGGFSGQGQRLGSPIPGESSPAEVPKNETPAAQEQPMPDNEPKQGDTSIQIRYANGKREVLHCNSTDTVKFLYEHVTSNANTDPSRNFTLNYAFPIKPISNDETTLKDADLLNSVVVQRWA
Kind of assay: ITC; 25 °C; 220 μM Shp1 injected into 16 μM Cdc48-NTD (WT or C115S); 2 μL injections, 150 s spacing; Malvern MicroCal PEAQ-ITC. The conditions noted are these: both partners purified. On the technique in general: ITC needs no label: the signal is the heat of the interaction.

B1: Cdc48-NTD-WT (domain or fragment)
chain: MGEEHKPLLDASGVDPREEDKTATAILRRKKKDNMLLVDDAINDDNSVIAINSNTMDKLELFRGDTVLVKGKKRKDTVLIVLIDDELEDGACRINRVVRNNLRIRLGDLVTIHPCPDIKYATRISVLPIADTIEGITGNLFDVFLKPYFVEAYRPVRKGDHFVVRGGMRQVEFKVVDVEPEEYAVVAQDTIIHWEGEPINREDEENNMN
modifications: Construct limits are not printed. Taken by convention as the equivalent of human p97 N domain 1-199, using the +10 offset shown by Cys209 hVCP = Cys219 Cdc48.
As usually defined, the Kd is the free concentration of one partner at which half of the binding sites on the other are occupied at equilibrium, for simple one-to-one binding. Higher therefore signals a looser complex. On to B1, for which the Kd is 14.2 µM.
